# Assay results reported in paper PMC2888443 (The Journal of Biological Chemistry, 2010).
# T1: LEDGF/p75 C-terminal fragment, LEDGF(Cterm), residues 325-530 (human, UniProt O75475 325-530)
# T1 sequence: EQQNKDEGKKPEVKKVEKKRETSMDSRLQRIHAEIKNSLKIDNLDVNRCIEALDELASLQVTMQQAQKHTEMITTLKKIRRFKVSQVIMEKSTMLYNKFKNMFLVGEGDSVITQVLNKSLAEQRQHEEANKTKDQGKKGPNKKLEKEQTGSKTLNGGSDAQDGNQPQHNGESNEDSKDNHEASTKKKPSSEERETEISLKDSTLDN
# B1: HIV integrase, full-length, wild-type (enzyme)
# chain: FLDGIDKAQEEHEKYHSNWRAMASDFNLPPVVAKEIVASCDKCQLKGEAMHGQVDCSPGIWQLDCTHLEGKVILVAVHVASGYIEAEVIPAETGQETAYFLLKLAGRWPVKTVHTDNGSNFTSTTVKAACWWAGIKQEFGIPYNPQSQGVIESMNKELKKIIGQVRDQAEHLKTAVQMAVFIHNFKRKGGIGGYSAGERIVDIIATDIQTKELQKQITKIQNFRVYYRDSRDPVWKGPAKLLWKGEGAVVIQDNSDIKVVPRRKAKIIRDYGKQMAGDDCVASRQDED
# What was measured:
# [1] = molecular target: LEDGF/p75 C-terminal fragment, LEDGF(Cterm), residues 325-530 (human) (UniProt O75475); experiment: SEC-MALS
# [2] = molecular target: HIV integrase, full-length, IN(tetra) (C56S, F139D, F185H, C280S) (HIV); experiment: AUC
# [3] = molecular target: LEDGF/p75 integrase binding domain, LEDGF(IBD) (human); experiment: AUC
# [4] = molecular target: LEDGF/p75 integrase binding domain, LEDGF(IBD) (human); experiment: SEC-MALS
# [5] = molecular target: IN(tetra)·LEDGF(IBD) complex of two IN and one LEDGF(IBD), IN2LEDGF1 (HIV | human); experiment: AUC
# [6] = molecular target: HIV integrase N-terminal and catalytic core domains, IN(NTD-CCD)(F185K) (HIV); experiment: SEC-MALS
# [7] = molecular target: T1, LEDGF/p75 C-terminal fragment, …; experiment: SEC-MALS
molecule,measurement,setting,value
"HIV integrase, full-length, IN(tetra)(D116N) (enzyme)",stoichiometry N,[1],1 IN:LEDGF
"HIV integrase, full-length, IN(tetra) (C56S, F139D, F185H, C280S) (enzyme)",Kd,[2],9.3 µM
same,stoichiometry N,[3],2 IN:LEDGF
same,stoichiometry N,[4],2 IN:LEDGF
"IN(tetra)·LEDGF(IBD) complex of two IN and one LEDGF(IBD), IN2LEDGF1",Kd,[5],8.9 µM
"HIV integrase N-terminal and catalytic core domains, IN(NTD-CCD)(F185K) (domain or fragment)",stoichiometry N,[6],2
same,stoichiometry N,[4],1 IN:LEDGF
B1,stoichiometry N,[7],1 IN:LEDGF
